Experimental data as given in patent publication US20180364256A1 (WAYNE STATE UNIVERSITY, published 2018).
Substitutions are numbered along the chain they refer to.

T1: N-terminal fragment of human cardiac troponin T (HcTnT-N69) (human)
T1 construct: Recombinantly produced and purified; immobilised on microtiter plates in the ELISA; also the immunogen; also called N69 peptide; isolated (free, cleaved) HcTnT-N69 peptide
T1 peptide: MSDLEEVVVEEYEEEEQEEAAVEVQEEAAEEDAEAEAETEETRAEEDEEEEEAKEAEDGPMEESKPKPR

B1: mouse monoclonal antibody 1E11 (antibody, IgG3, V domains shown)
VH: GAELAKPGASVKMSCKASGYTFTTYWMHWVKQRPGQGLEWIGFINPSTGYTEYNQKFKDKATLTADKSSSTAYMQLSSLTSGDSAVYYCARKSFAYWGHGTLVTVSA
VL: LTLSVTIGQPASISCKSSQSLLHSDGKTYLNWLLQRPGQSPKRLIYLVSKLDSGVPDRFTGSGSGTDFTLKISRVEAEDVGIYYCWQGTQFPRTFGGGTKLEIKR
notes: Mouse hybridoma mAb, IgG3 kappa (VH2/VL3); also called mAb 1E11; Class III mAb
B2: mouse monoclonal antibody 1D6 (antibody, V domains shown)
VH: GPELVKPGASVKISCKTSGYTFTENTIHWVKQSHGKSLEWVGGINPNNGGTNYNQKFKGRAALTVDKSSSTAYMELRSLTSEDSAVYYCARSWDWFAYWGQGTLVTVSA
VL: LSLPVSLGDQASISCRSSQSLVHSNGNTYLHWYLQKPGQSPKLLVYKVSNRFSGVPDRFSGSGSGTDFTLKIIRVEAEDLGVYFCSQSTRIPFTFGSGTKLEMKR
notes: Mouse hybridoma mAb, IgG1 kappa (VH1/VL1); they appear to lack the first N-terminal residues; also called mAb 1D6; Class I mAb
B3: mouse monoclonal antibody 2A8 (antibody, V domains shown)
VH: B2 VH
VL: B2 VL
notes: Mouse hybridoma mAb, IgG1 kappa (VH1/VL1), separately isolated hybridoma with the same variable regions as 1D6; also called Class I mAb; anti-N69 mAb
B4: mouse monoclonal antibody 2C1 (antibody, V domains shown)
VH: B2 VH
VL: B2 VL
notes: as for B3
B5: mouse monoclonal antibody 2D11 (antibody, IgG1, V domains shown)
VH: B2 VH
VL: B2 VL with E76K
notes: Mouse hybridoma mAb, IgG1 kappa (VH1/VL2); also called mAb 2D11; Class II mAb
B6: mouse monoclonal antibody 3H5 (antibody, IgM, V domains shown)
VH: GGGLVQPKGSLKLSCAASGFTFNTYAMNWVRQAPGKGLEWVARIRSKSNNYATYYADSVKDRFTISRDDSQSMLYLQMNNLKTEDTAMYYCVRHDGVAWFAYWGQGTLVTVSA
VL: LSLPVSLGDQASISCRSSQSIVHSNGNTYLEWYLQKPGQSPKLLIYKVSNRFSGVPDRFSGSGSGTDFTLKISRVEAEDLGVYYCFQGSHVPPTFGAGTKLELKR
notes: Mouse hybridoma mAb, IgM kappa (VH3/VL4); also called mAb 3H5; Class IV mAb
B7: mouse monoclonal antibody 2H3 (antibody, IgM, V domains shown)
VH: B6 VH
VL: B6 VL with E76K
notes: Mouse hybridoma mAb, IgM kappa (VH3/VL5); also called mAb 2H3; Class V mAb
B8: mouse monoclonal antibody 4F5 (antibody, IgM, V domains shown)
VH: B6 VH
VL: B6 VL with R16K, E76K
notes: Mouse hybridoma mAb, IgM kappa (VH3/VL6); also called mAb 4F5; Class VI mAb
B9: mouse monoclonal antibody 2D9 (antibody, IgM, V domains shown)
VH: B6 VH
VL: B6 VL with R16K, E31K, E76K
notes: Mouse hybridoma mAb, IgM kappa (VH3/VL7); also called mAb 2D9; Class VII mAb

Target: T1, N-terminal fragment of human cardiac …
Test: indirect ELISA titration, antigen immobilised on plate
Experimental: (§1) Purified HcTnT-N69 (also called N69) having the amino acid sequences shown in SEQ ID NO:1 or intact human cTnT antigen was immobilized on microtiter plates. After washing and blocking the plastic surface with 1% BSA and 0.05% Tween-20, the immobilized antigen was incubated with serial dilutions of the anti-N69 mAbs. Following washes to remove the unbound antibody, the plates were further incubated with HRP-conjugated second antibody followed by washes and H₂O₂-ABTS substrate reaction. A₄₁₅ₙₘ curve for each assay well was recorded by an automated microplate reader.

Binding result, binds:
B1, B2, B3, B4, B5, B6

Target: T1, N-terminal fragment of human cardiac …
Test: assay not named in the sentence (ELISA titration per the Examples)
Experimental: as §1

Binding result, binds:
B7, B8, B9
